Consider three molecules from patent publication US20080274118A1 (Novartis, published 2008).

Assay [1] addresses T1, human CD40, soluble or recombinant (ELISA, Biacore) (human, UniProt P25942 21-193, limits assumed).
T1 construct: also called soluble CD40; recombinant CD40
As to the kind of experiment: Biacore (method named in paragraph 140). A general note: In SPR one partner is held on a chip, and binding of the other changes the refractive index at the surface.

Assay [2] concerns the target T2, human CD40, cell-surface (on human B cells, monocytes and other CD40-expressing cells) (human, UniProt P25942 20-277). As to the kind of experiment: cell-based or functional assay.
Assay [3] has as its target T2, human CD40, cell-surface (on human B …). As to the kind of experiment: cell-based or functional assay. The source holds these as a separate data set.

T2 sequence (P25942 20-277): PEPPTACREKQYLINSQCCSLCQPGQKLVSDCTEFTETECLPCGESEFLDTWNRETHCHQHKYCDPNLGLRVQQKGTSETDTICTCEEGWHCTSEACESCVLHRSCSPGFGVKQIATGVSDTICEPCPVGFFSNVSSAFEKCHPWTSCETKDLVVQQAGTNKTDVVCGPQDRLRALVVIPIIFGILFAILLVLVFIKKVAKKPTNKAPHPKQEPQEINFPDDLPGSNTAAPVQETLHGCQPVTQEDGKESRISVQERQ
T1 sequence (P25942 21-193 limits assumed): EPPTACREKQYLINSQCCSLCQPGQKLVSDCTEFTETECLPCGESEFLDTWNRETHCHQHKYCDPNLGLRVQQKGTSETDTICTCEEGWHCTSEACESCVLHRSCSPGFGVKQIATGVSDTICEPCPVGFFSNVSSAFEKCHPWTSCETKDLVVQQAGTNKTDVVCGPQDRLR

B1: CHIR-12.12 fully human anti-CD40 monoclonal antibody (antibody, V domains shown)
VH: QVQLVESGGGVVQPGRSLRLSCAASGFTFSSYGMHWVRQAPGKGLEWVAVISYEESNRYHADSVKGRFTISRDNSKITLYLQMNSLRTEDTAVYYCARDGGIAAPGPDYWGQGTLVTVSS
VL: DIVMTQSPLSLTVTPGEPASISCRSSQSLLYSNGYNYLDWYLQKPGQSPQVLISLGSNRASGVPDRFSGSGSGTDFTLKISRVEAEDVGVYYCMQARQTPFTFGPGTKVDIRR
notes: also called 153.8E2.D10.D6.12.12
On to B1, for which, in assay [1], the Kd worked out at 0.5 nM.

B2: CD40L on formaldehyde-fixed transfected CHO cells (ligand)
chain: MIETYNQTSPRSAATGLPISMKIFMYLLTVFLITQMIGSALFAVYLHRRLDKIEDERNLHEDFVFMKTIQRCNTGERSLSLLNCEEIKSQFEGFVKDIMLNKEETKKENSFEMQKGDQNPQIAAHVISEASSKTTSVLQWAEKGYYTMSNNLVTLENGKQLTVKRQGLYYIYAQVTFCSNREASSQAPFIASLCLKSPGRFERILLRAANTHSSAKPCGQQSIHLGGVFELQPGASVFVNVTDPSQVSHGTGFTSFGLLKL
As to B2, in assay [2], the “MCP-1 secretion, monocytes, Donor 1 (folds of induction over background)” value is 290 fold; the “MIP-1beta secretion, monocytes, Donor 1 (folds of induction over background)” value was determined as 162 fold; the “hIL6 secretion, monocytes, Donor 1 (folds of induction over background)” value was found to be 77.9 fold; the “hIL8 secretion, monocytes, Donor 1 (folds of induction over background)” value was 124 fold. For the same molecule, in assay [2], the “hIL-10 secretion, monocytes, Donor 1 (folds of induction over background)” value turned out to be 4.2 fold and the “hTNF-alpha secretion, monocytes, Donor 1 (folds of induction over background)” value was 13.8 fold. Further, in assay [3], the “MCP-1 secretion, normal B cells, Donor 1 (folds of induction over background)” value amounted to 5.5 fold; the “MCP-1 secretion, normal B cells, Donor 3 (folds of induction over background)” value was 1.7 fold; the “MIP-1beta secretion, normal B cells, Donor 1 (folds of induction over background)” value was 2.2 fold; the “MIP-1beta secretion, normal B cells, Donor 2 (folds of induction over background)” value turned out to be 2.6 fold. In assay [3], the “MIP-1beta secretion, normal B cells, Donor 3 (folds of induction over background)” value amounted to 17.8 fold; the “hIL-6 secretion, normal B cells, Donor 1 (folds of induction over background)” value came to 5.7 fold; the “hIL-6 secretion, normal B cells, Donor 2 (folds of induction over background)” value amounted to 3.8 fold; the “hIL-6 secretion, normal B cells, Donor 3 (folds of induction over background)” value is 20.5 fold. Moreover, in assay [3], the “hIL-8 secretion, normal B cells, Donor 1 (folds of induction over background)” value is 7.7 fold; the “hIL-8 secretion, normal B cells, Donor 2 (folds of induction over background)” value was 14.7 fold; the “hIL-8 secretion, normal B cells, Donor 3 (folds of induction over background)” value is 49.3 fold; the “hIL-10 secretion, normal B cells, Donor 1 (folds of induction over background)” value was 3.6 fold. In assay [3], the “hIL-10 secretion, normal B cells, Donor 3 (folds of induction over background)” value is 3.6 fold; the “hTNF-alpha secretion, normal B cells, Donor 1 (folds of induction over background)” value worked out at 3.7 fold; the “hTNF-alpha secretion, normal B cells, Donor 2 (folds of induction over background)” value worked out at 4.8 fold; the “hTNF-alpha secretion, normal B cells, Donor 3 (folds of induction over background)” value amounted to 22.8 fold.

B3: CHIR-5.9 fully human anti-CD40 monoclonal antibody (antibody, V domains shown)
VH: EVQLVQSGAEVKKPGESLKISCKGSGYSFTSYWIGWVRQMPGKGLEWMGIIYPGDSDTRYSPSFQGQVTISADKSISTAYLQWSSLKASDTAMYYCARGTAAGRDYYYYYGMDVWGQGTTVTVSS
VL: AIVMTQPPLSSPVTLGQPASISCRSSQSLVHSDGNTYLNWLQQRPGQPPRLLIYKFFRRLSGVPDRFSGSGAGTDFTLKISRVEAEDVGVYYCMQVTQFPHTFGQGTRLEIKR
notes: also called mAb CHIR-5.9; 131.2F8.5.9
In the case of B3, the Kd in assay [1] stood at 12 nM.

For orientation: Kd means the free concentration of one partner at which half of the binding sites on the other are occupied at equilibrium, for simple one-to-one binding.
